In the supplement of paper PMC12636428:

Test system: Saccharomyces cerevisiae
Assay: transcriptional activation domain activity (GFP:mCherry ratio, weighted mean of sorted bins, harmonized to initial dataset scale) (arbitrary fluorescence ratio units); higher = stronger transcriptional activation
Conditions: beta-estradiol 1 µM; induction time 4 h
Procedure, shortened: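 Barcoded protein tiles fused to an estradiol-inducible synthetic transcription factor were integrated at the yeast URA3 locus, in diploids carrying a GFP reporter. Cultures were diluted 1:5 into SC with 1 uM beta-estradiol, held 4 hours at 30 °C, sorted into 8 bins by GFP:mCherry ratio, and barcodes sequenced. Tiles under 50 reads were discarded. Activation activity is the read-weighted mean of bin median fluorescence, averaged across barcodes, then linearly mapped onto the initial dataset scale.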

| Sequence | transcriptional activation domain activity |
| --- | --- |
| YSASPLEGDSSLPSSLPSSTEDCLLLSLENTITVIAGNQRQAYDSTSSTEEGT | 16100 |
| YSHLFNLHTVVFDNYLLYHNAFLLFPLVFCVLPICAIFCFCGMLCNLNRLSGR | 66600 |
| YSILLSVILIFWWSVFTYYPSHLSYLSQRFSYYVWGDDSIDAVTVFKAWVYAH | 61800 |
| YSIQVFMVPQLAICKVDSIGNVIGGQGGCYNLIPVFDWVRRCVVSIFLVFMVA | 71500 |
| YSIYVYRYFLYQWGDLCYMALHPTTSSLIGVIVCKLEPHRSGPFRGYIAMLAV | 42600 |
| YSLNIFIFGNGRYGSTIQANLHGLRSFIRLVPKDCLALIRHLHLHIFFSGLPD | 54800 |
| YSMPSEICIVGFSGVNTAFIVSLLVDLGFQASPIYSMYMFFLTWRFCARLVHY | 66500 |
| YSNSISNSNSNSTGNLNSSYFNSLNIDSMLDDYVSSDLLLNDDDDDTNLSRRR | 88700 |
| YSPLYLAITFAVQYGISFTSMTAVVVRTILWYRHDITWTFTLIYSSLGVAAFV | 63700 |
| YSQLILYLLAKAKLHWNELQNLQVIFADLFEHIHIAGILPNKYQTLSVMANAL | 56500 |
| YSRLILSVIIQFYQRCSDRFQDVVSRNSLDLTDTRLLVSARWAQRENLVVCLS | 49600 |
| YSRRDRPRDRGDRGDRDGGEERGGRRDRGDRNDRFGGEDRGGRGRRDGGGGGG | 10400 |
| YSYVDSNMDSISSVVSEDLLDERGHEKIEDEDEDNDLDEDDIYDISLLKNRRK | 26500 |
| YTIGFVGFVMSLQKGYLKQQFGLFCWVHMSLLIIVLSSHFVINNILEGLIWFW | 54600 |
| YTKTIATRNVANQTRLGKVRKSSVIVIAGNGHGRLGVGMAKSIEAPVATMAAT | 56400 |
| YTLILSLFYSLAPVLFRLSSAAFFNISLLTGSFWGVAIGVKVFHLSIHWMYPI | 42600 |
| YTNVYRCIKDEVYLLLSRLSLNWRKQDDYIWLLNLWTIWAAPWRLGNVPIISG | 53500 |
| YTRCEVIYLKRSLPSYFGPSMLQFTILFILIVTNSIVLLGLFLLLCRTLWGLA | 19500 |
| YTRQLALGCVTRLLWTYLFRCTESTVIAFKKLDGIIKTLFPPFRRTIYPSETP | 61400 |
| YTRVVTRFKRLFVSSRGYTAFIPALFKVFCDVEHLAPIRSAIVFAWCRFYAVH | 67300 |
| YTSLIILVTWLSIVFSKFVLHRRTFGLVFVHLHFFFLFALFSFFFSYCVCIRI | 60600 |
| YTTPQFAGMWSQLVEWQWLVIEKFLDILLNMLYLLHGMSYIWGNLFLPYFRLV | 53600 |
| YTYLSNAQLILSICSLYSCSPYLDPYMLLPLLRWAFLYVFLLVLAFAAVLFSA | 41800 |
| YVAPGVASPIPVNYIWTPFASWRLVAILISLLSLYSWGMLIFFFWFLFWLLLY | < 6570 |

| Sequence | transcriptional activation domain activity |
| --- | --- |
| YVASQLIEIFLPEALFSVVYLSNAGKCLSREEFLVQFTFLVRLFKHEFVYPWN | 30700 |
| YVDEENQSSNGAVRLWKRHFTLSGIMNRLLRKTVRRNTWIYISVSTLIVQIRR | 45700 |
| YVGKYPESIDTFSIVPRTPTSRLIRSYLKTILANPESRKIFYFLMLNLAYMLV | 58300 |
| YVGRSVLIHQSHGSFEILILWNHYPLLCFFFCHGRRRVFSARLSLLLFCLCRF | 54700 |
| YVILVAVSIFTTTYVMLTSLPVLFQQCPFQTPLSSIIWYLGHFLVIAFLSLFS | 62600 |
| YVKSRGYKTIIRFFPHEVADLELARACMRGAAREPRQWALRYAALLWLALICM | 68700 |
| YVLATCYPKWVYEVLMATRGRIWCVLILLAYPFFAVGVGVIVCVMGLLVAAWI | 35800 |
| YVLVLTYLNYFVLILFGHMRDILGKVFKAQAYVHLKTVNGYAPLVSDFDSFYN | 63900 |
| YVRRARGYVMYGLFQLMLRFLLAGFFFFSFRGGDMGIGCGYRLLLLLFFFFIY | 35800 |
| YVSVNEHGDETDSSFVRLVNLGSSIVIQHITCYLQSRVVFYLMNLHSMPRAIF | 60800 |
| YVVLEVGLNVQLDRMAQSDARMVVHALSGGPFIDVVRWVPLRMSSGAFQIGLR | 68300 |
| YVVLQGLSGAASGFLQIVPLIIYYVKLFLMGSTPRSVYKIKYTLRHVSWGTLF | 66600 |
| YVVQYKNSLIGKHFKMLQQLGVFHLHDLCTPLLFDLWKATGELGALLWYPEIK | 33300 |
| YVVVVLTAMQVGLATETLAHNKAFVTISYGFSIFSIFIPIVFTLLLLLVFFFV | 19400 |
| YYAECCTHTGNAHKVQRKMLNPVFTTKHMKARMWYQFMLLFLKEALMNELKGY | 14300 |
| YYCLLWVRVSIKGQKGAVIAPEQIVIGWVDFHALIIVLWSNRISITLCVARVI | 29200 |
| YYGMYPQDISTLGVSPRTPTSRLIRSYMKTILSNPESRKIFYFLMLNMCYMLV | 58900 |
| YYGRTIVRTNFWLKTYINFEIDALLLNGRATVRRFINHLYQDQRAKLFKECKH | 54700 |
| YYGWLPFGISSILVEIPYCMFFCASFMCGFYWTAGLVNHPVNCGYFYLMLMFF | 69900 |
| YYLGKYQENSKEKRKFQVIRSGMSELNHILYMALDNATNMVIMWMLLVQYHAT | 55600 |
| YYPLFLGRLLPLSLLSFFVYFILFTFAFLPQLAFLYIFHGRGAWLNAIFLVLG | 44200 |
| YYVILLSIKLFGINSSLWALLITLTNWFNLYLSCRLIPNNIEGILTIIALYYW | 66500 |
| YYVPLLASPTFWAVTLPLYCVFVGIQVFFVFLEAAGLSLHLVVIFWWLGWWAG | 53000 |
| YYYFNYFYFYYFYYYFIIIIIILFYLILFLFLFLLLLLFIYFYFYFNYFYYLF | 69700 |
